Source: patent CN116926038A, “一种TrkA的抗原表位肽及其应用” (Guangdong HEC Pharmaceutical Co Ltd, priority 2022, dated 2023)
Ends that are not written are not given here.

Experiments:
[1] = target: T1, Human-P75 (Homo sapiens, UniProt P08138); assay: ELISA binding of serum of peptide-immunised mice to Human-P75 (Example 18); details: serum dilutions 1:50 to 1:6400; blank serum as control
T1 construct: purchased Sino Biological 13184-H08H
T1 sequence (P08138 29-250 limits assumed): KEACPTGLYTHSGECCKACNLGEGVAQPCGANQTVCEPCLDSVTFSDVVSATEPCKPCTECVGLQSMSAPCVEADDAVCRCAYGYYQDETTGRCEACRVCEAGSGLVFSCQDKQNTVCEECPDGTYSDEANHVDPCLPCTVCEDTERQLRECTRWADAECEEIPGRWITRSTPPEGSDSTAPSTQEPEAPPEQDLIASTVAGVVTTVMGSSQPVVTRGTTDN

[2] = target: T2, Human-TrKB (Homo sapiens, UniProt Q16620); assay: ELISA binding of serum of peptide-immunised mice to Human-TrKB (Example 18); details: serum dilutions 1:50 to 1:6400; blank serum as control
T2 construct: purchased Sino Biological 10047-H08H

[3] = target: T3, Human-TrKC (Homo sapiens, UniProt Q16288); assay: ELISA binding of serum of peptide-immunised mice to Human-TrKC (Example 18); details: serum dilutions 1:50 to 1:6400; blank serum as control
T3 construct: purchased Sino Biological 10048-H08H

[4] = target: binding of Human-TrKA receptor and its ligand Human-NGF (Human-TrKA受体与其配体Human-NGF结合) (Homo sapiens, UniProt P04629); assay: ELISA blocking of Human-TrKA/Human-NGF binding by serum of peptide-immunised rabbits (Example 19); details: 300 μg each time
binding of Human-TrKA receptor and its ligand Human-NGF (Human-TrKA受体与其配体Human-NGF结合), sequence (P04629 33-796): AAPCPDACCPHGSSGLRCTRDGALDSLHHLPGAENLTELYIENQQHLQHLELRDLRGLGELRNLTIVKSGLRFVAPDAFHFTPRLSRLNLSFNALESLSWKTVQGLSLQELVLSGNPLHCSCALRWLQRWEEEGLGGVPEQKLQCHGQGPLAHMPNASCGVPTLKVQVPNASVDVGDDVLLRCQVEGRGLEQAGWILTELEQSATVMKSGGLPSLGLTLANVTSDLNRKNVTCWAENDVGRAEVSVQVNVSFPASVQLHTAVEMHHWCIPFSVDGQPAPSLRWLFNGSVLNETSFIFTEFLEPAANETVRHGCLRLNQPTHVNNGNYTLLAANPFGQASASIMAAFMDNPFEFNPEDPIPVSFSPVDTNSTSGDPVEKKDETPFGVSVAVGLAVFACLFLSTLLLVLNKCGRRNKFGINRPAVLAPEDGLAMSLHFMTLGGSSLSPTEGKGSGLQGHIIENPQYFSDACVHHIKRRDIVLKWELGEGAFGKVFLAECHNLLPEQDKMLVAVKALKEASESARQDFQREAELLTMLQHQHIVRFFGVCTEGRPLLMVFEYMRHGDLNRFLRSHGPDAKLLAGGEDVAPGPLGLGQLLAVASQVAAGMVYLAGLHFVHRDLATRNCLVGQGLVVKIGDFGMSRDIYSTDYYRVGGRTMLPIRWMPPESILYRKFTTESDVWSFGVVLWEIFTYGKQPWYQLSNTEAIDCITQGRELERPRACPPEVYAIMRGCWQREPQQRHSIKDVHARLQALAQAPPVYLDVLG

T3 sequence (Q16288 32-429 limits assumed): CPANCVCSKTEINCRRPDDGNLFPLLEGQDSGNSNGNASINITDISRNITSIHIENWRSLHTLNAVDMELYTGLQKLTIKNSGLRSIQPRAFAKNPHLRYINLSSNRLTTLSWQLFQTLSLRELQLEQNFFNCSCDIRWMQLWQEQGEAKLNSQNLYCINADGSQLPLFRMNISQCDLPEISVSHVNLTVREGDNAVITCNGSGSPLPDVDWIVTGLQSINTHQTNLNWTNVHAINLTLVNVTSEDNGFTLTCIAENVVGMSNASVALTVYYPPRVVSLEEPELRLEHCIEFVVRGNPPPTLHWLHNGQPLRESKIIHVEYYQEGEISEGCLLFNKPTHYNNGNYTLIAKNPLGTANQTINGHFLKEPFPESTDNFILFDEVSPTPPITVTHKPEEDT
T2 sequence (Q16620 32-430 limits assumed): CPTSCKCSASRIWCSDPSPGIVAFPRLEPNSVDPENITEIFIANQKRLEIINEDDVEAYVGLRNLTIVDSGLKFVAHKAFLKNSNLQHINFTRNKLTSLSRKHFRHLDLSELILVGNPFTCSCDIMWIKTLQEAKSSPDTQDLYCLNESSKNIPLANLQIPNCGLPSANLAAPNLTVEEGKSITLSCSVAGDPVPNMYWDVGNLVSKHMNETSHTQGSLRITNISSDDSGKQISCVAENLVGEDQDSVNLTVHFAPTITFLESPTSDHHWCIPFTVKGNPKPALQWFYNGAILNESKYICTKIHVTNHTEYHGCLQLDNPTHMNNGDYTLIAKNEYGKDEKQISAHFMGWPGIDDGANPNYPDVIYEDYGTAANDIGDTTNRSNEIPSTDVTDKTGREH

MAAFMDNPFEFNPED-C-KLH: 多肽MAAFMDNPFEFNPED-C-KLH (SEQ ID NO:18; 钥孔血蓝蛋白(KLH)) (not fully specified (C-terminus); also: KLH carrier conjugated via C-terminal Cys)
binding of immunised mouse serum [1]: 没有明显结合 | binding of immunised mouse serum [2]: 没有明显结合 | binding of immunised mouse serum [3]: 没有明显结合 | Human-TrkA/Human-NGF binding signal (OD450) versus blank serum ([4]; immunised rabbit serum diluted 1:2): 显著性降低 | Human-TrkA/Human-NGF binding signal (OD450) versus blank serum ([4]; immunised rabbit serum, no dilution stated): 显著性降低
